Columns and labels:
[1] = molecular target: T1, human DR4 with death domain deletion on ExpiCHO-S cells (human); experiment: flow cytometry, ExpiCHO-S cells expressing human DR4, n = 3
Description: (§1) Binding of BisG1-FAPα-FERL/DR4-FERR, BisG1-DR4-FEAL/b12-FEAR and IgG1-DR4-FERR to DR4 of various species commonly used for nonclinical toxicology studies was assessed by flow cytometry using ExpiCHO-S cells transiently expressing DR4 from different animal species. In contrast to other species, rodents only express one DR which has highest homology with human DR5. Therefore, ExpiCHO-S cells transiently expressing rat and mouse DR protein were used instead. All DR constructs lack the intracellular DD to avoid apoptosis of transfected cells upon DR(4) activation. IgG1-b12 was used as negative control.
Target sequence in this assay (chain, as listed by the source limits assumed, stated change not applied): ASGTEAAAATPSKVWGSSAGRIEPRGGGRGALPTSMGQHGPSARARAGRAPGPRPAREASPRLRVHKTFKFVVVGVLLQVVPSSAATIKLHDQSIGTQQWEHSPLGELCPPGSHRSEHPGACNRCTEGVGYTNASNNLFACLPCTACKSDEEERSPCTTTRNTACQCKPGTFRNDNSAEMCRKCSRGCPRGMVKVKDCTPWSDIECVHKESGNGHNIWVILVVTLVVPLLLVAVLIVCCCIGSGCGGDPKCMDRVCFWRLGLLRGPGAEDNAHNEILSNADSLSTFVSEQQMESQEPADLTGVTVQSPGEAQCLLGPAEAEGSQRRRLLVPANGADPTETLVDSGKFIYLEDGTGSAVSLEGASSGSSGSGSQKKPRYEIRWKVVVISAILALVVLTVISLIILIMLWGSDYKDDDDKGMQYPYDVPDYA

[2] = molecular target: T1, human DR4 with death domain deletion on …; experiment: flow cytometry, ExpiCHO-S cells expressing human DR4, n = 1
Description: as §1

human DR4HsECD-FcHisCtag = molecular target: T2, human DR4HsECD-FcHisCtag (human); experiment: BLI (Octet), antigen captured on anti-Penta-HIS sensors, average of three experiments
T2 construct: also called recombinant human DR4
Description: (§2) Experiments were carried out while shaking at 1,000 RPM at 30° C. Amine Reactive 2nd Generation (AR2G) biosensors (Sartorius, Cat #18-5092) were activated by reaction with 20 mM EDC (N-(3-Dimethylaminopropyl)-N′-ethylcarbodiimide hydrochloride) (Sigma-Aldrich, Cat #03449) and 10 mM s-NHS (N-hydroxysulfosuccinimide sodium salt) (Sigma-Aldrich, Cat #56485) for 300 s. The activated AR2G sensors were loaded with 2.5 μg/mL His-tagged recombinant Human FAPα (Acro Biosystems, Cat #FAP-H5244-100ug) in 10 mM Sodium Acetate pH 5.0 (Sartorius, Cat #18-1069) or 2.5 μg/mL His-tagged recombinant Cynomolgus FAPα (Acro Biosystems, Cat #FAP-C52H3-100ug) in 10 mM Sodium Acetate pH 5.0 for 600 s and quenched with 1 M ethanolamine pH 8.5 (Sartorius Cat #18-1071) for 300 s. After a baseline measurement in Sample Diluent (1000 s; Sartorius, Cat #18-1104), the association (100 s) and dissociation (4,000 s) of functionally monovalent antibody was determined using a concentration range of 0.78-800 nM with two-fold dilution steps in Sample Diluent. The molecular mass of the antibodies used for the calculations was calculated from the sequences.
(§3) The binding affinity of BisG1-FAPα-FERL/DR4-FERR, BisG1-b12-FERL/DR4-FERR and control BisG1-FAPα-FERL/b12-FERR to recombinant human and cynomolgus monkey DR4 protein was determined using label-free biolayer interferometry on an Octet HTX instrument (Sartorius).
(§4) The protocol detailed in Example 5 was used with the following differences: anti-Penta-HIS biosensors (Sartorius, Cat #18-5120) were used; the sensors were preconditioned by exposure to 10 mM glycine (Sigma-Aldrich, Cat #15527) buffer pH 1.5 for 5 s, followed by neutralization in Sample Diluent (Sartorius, Cat #18-1104) for 5 s; both steps were repeated 2 times; the sensors were loaded with 50 nM human DR4HsECD-FcHisCtag (SEQ ID NO: 66), or cynomolgus DR4MfECD-FcHisCtag (SEQ ID NO: 67), for 600 s; the dissociation time was 1,000 s; The window of interest for the dissociation time was set at 100 s for the cynomolgus antigen and at 1,000 s for the human antigen.

[3] = molecular target: T3, cynomolgus DR4MfECD-FcHisCtag (cynomolgus monkey); experiment: as above
T3 construct: also called recombinant cynomolgus monkey DR4
T3 chain: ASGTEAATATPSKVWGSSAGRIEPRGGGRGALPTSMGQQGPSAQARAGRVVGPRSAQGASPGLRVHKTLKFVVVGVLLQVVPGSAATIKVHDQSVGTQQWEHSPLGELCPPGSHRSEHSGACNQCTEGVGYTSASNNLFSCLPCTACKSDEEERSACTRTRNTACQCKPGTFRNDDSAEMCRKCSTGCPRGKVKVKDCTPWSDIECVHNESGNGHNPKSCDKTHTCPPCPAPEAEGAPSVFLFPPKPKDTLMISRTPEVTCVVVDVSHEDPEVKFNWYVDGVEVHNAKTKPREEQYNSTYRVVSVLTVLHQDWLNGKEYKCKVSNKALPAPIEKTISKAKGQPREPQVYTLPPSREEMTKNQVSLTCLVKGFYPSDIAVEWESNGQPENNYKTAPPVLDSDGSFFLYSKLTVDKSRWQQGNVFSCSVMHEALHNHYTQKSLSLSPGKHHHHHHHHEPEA
Description: as §2, §3, §4

T2 sequence (chain, as listed by the source limits assumed): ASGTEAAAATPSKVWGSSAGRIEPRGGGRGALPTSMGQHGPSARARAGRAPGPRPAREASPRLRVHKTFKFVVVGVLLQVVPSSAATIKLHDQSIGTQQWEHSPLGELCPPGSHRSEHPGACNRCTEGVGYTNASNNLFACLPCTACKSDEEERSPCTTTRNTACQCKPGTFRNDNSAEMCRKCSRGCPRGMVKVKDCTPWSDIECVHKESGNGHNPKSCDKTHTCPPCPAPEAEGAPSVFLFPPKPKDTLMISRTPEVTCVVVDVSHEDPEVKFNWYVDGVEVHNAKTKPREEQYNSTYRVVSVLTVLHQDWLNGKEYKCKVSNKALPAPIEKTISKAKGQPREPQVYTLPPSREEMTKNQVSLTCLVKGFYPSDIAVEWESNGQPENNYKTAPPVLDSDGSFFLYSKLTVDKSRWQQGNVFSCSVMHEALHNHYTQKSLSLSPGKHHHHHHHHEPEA

B1: IgG1-DR4-FERR (antibody, V domains shown)
VH: QVQLQESGPGLVKPSGTLSLTCAVSGGSISSYSWWSWIRQPPGKGLEWIGELYHSGSTNYNPSLKSRVTISVDKSKNQFSLKLRSVTAADTAVYYCVRGVATIDYWGQGTLVTVSS
VL: QSALTQPPSASGSPGQSVTISCTGTSSDVGGYNFVSWYQQDPGKAPKLLIYEVTKRPSGVPDRFSGSKSGNTASLTVSGLQAEDEADYYCSSYAGSNNVMFGGGTKLTVLG
notes: Bivalent monoclonal IgG1 lambda
[1]
  EC50: 0.04 µg/mL
[2]
  EC50: 0.33 µg/mL

B2: BisG1-FAPα-FERL/DR4-FERR (bispecific antibody, human IgG1, kappa, lambda)
heavy 1: EVQLLESGGGLVQPGGSPRLSCEASGFTFSSYALSWVRQAPGKGLEWVSAISGSGGGRYYADSVKGRFTISRDNSKNTLFLQMNSLRAEDTAVYYCAKEGYSSSGTYWDHWGQGTLVTVSSASTKGPSVFPLAPSSKSTSGGTAALGCLVKDYFPEPVTVSWNSGALTSGVHTFPAVLQSSGLYSLSSVVTVPSSSLGTQTYICNVNHKPSNTKVDKRVEPKSCDKTHTCPPCPAPEFERGPSVFLFPPKPKDTLMISRTPEVTCVVVDVSHEDPEVKFNWYVDGVEVHNAKTKPREEQYNSTYRVVSVLTVLHQDWLNGKEYKCKVSNKALPAPIEKTISKAKGQPREPQVYTLPPSREEMTKNQVSLTCLVKGFYPSDIAVEWESNGQPENNYKTTPPVLDSDGSFLLYSKLTVDKSRWQQGNVFSCSVMHEALHNHYTQKSLSLSPG
light 1: AIQMTQSPSSVSASVGDRVTITCRASQGVSSWLAWYQQKPGRAPKLLIYVASTLQSGVPSRFSGSGSGTDFTLTINSLQPEDFATYYCQQANSFPPTFGQGTRLEMKRTVAAPSVFIFPPSDEQLKSGTASVVCLLNNFYPREAKVQWKVDNALQSGNSQESVTEQDSKDSTYSLSSTLTLSKADYEKHKVYACEVTHQGLSSPVTKSFNRGEC
heavy 2: QVQLQESGPGLVKPSGTLSLTCAVSGGSISSYSWWSWIRQPPGKGLEWIGELYHSGSTNYNPSLKSRVTISVDKSKNQFSLKLRSVTAADTAVYYCVRGVATIDYWGQGTLVTVSSASTKGPSVFPLAPSSKSTSGGTAALGCLVKDYFPEPVTVSWNSGALTSGVHTFPAVLQSSGLYSLSSVVTVPSSSLGTQTYICNVNHKPSNTKVDKRVEPKSCDKTHTCPPCPAPEFERGPSVFLFPPKPKDTLMISRTPEVTCVVVDVSHEDPEVKFNWYVDGVEVHNAKTKPREEQYNSTYRVVSVLTVLHQDWLNGKEYKCKVSNKALPAPIEKTISKAKGQPREPQVYTLPPSREEMTKNQVSLTCLVKGFYPSDIAVEWESNGQPENNYKTTPPVLDSDGSFFLYSRLTVDKSRWQQGNVFSCSVMHEALHNHYTQKSLSLSPG
light 2: QSALTQPPSASGSPGQSVTISCTGTSSDVGGYNFVSWYQQDPGKAPKLLIYEVTKRPSGVPDRFSGSKSGNTASLTVSGLQAEDEADYYCSSYAGSNNVMFGGGTKLTVLGQPKAAPSVTLFPPSSEELQANKATLVCLISDFYPGAVTVAWKADSSPVKAGVETTTPSKQSNNKYAASSYLSLTPEQWKSHRSYSCQVTHEGSTVEKTVAPTECS
notes: Human IgG1 bispecific made by controlled Fab-arm exchange of IgG1-FAPα-FERL and IgG1-DR4-FERR; monovalent for FAPα and for DR4; also called GEN1057
[1]
  EC50: 0.11 µg/mL
Human DR4HsECD-FcHisCtag
  Kd: 0.39 nM
  koff: 0.00012 s⁻¹
  kon: 320000 M⁻¹ s⁻¹
[3]
  Kd: 290 nM
  koff: 0.008 s⁻¹
  kon: 28000 M⁻¹ s⁻¹
[2]
  EC50: 1 µg/mL

B3: BisG1-b12-FERL/DR4-FERR (bispecific antibody, human IgG1, kappa, lambda)
heavy 1: QVQLVQSGAEVKKPGASVKVSCQASGYRFSNFVIHWVRQAPGQRFEWMGWINPYNGNKEFSAKFQDRVTFTADTSANTAYMELRSLRSADTAVYYCARVGPYSWDDSPQDNYYMDVWGKGTTVIVSSASTKGPSVFPLAPSSKSTSGGTAALGCLVKDYFPEPVTVSWNSGALTSGVHTFPAVLQSSGLYSLSSVVTVPSSSLGTQTYICNVNHKPSNTKVDKRVEPKSCDKTHTCPPCPAPEFERGPSVFLFPPKPKDTLMISRTPEVTCVVVDVSHEDPEVKFNWYVDGVEVHNAKTKPREEQYNSTYRVVSVLTVLHQDWLNGKEYKCKVSNKALPAPIEKTISKAKGQPREPQVYTLPPSREEMTKNQVSLTCLVKGFYPSDIAVEWESNGQPENNYKTTPPVLDSDGSFLLYSKLTVDKSRWQQGNVFSCSVMHEALHNHYTQKSLSLSPG
light 1: EIVLTQSPGTLSLSPGERATFSCRSSHSIRSRRVAWYQHKPGQAPRLVIHGVSNRASGISDRFSGSGSGTDFTLTITRVEPEDFALYYCQVYGASSYTFGQGTKLERKRTVAAPSVFIFPPSDEQLKSGTASVVCLLNNFYPREAKVQWKVDNALQSGNSQESVTEQDSKDSTYSLSSTLTLSKADYEKHKVYACEVTHQGLSSPVTKSFNRGEC
heavy 2: B2 heavy 2
light 2: B2 light 2
notes: Fab-arm exchange of IgG1-b12-FERL and IgG1-DR4-FERR; also called bsIgG1-ctrl-FERLxDR4-FERR
Human DR4HsECD-FcHisCtag
  Kd: 0.32 nM
  koff: 0.0001 s⁻¹
  kon: 330000 M⁻¹ s⁻¹
[3]
  Kd: 260 nM
  koff: 0.0082 s⁻¹
  kon: 31000 M⁻¹ s⁻¹

Source: US20250002610A1 (Genmab, published 2025)
